± gives the uncertainty stated by the source.

This data set in a line: amyloid nucleation score (Sup35N fusion, yeast selection) (log enrichment); library NNK3; higher = more nucleation; inactive = no reads after selection. Summed up: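 Three technical output replicates were used for random libraries. Psi-negative yeast expressing peptides of 20 random codons fused to Sup35N were induced with 100 μM copper sulfate for 24 hours and grown 7 days at 30°C on medium lacking adenine and uracil, and input and output plasmid inserts were Illumina-sequenced, excluding sequences with under 100 input reads. The nucleation score is the DiMSum log enrichment of output over input reads, centred on the mode score of non-aggregating sequences.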
Regarding RFAPFMRGM, the amyloid nucleation score was -0.784 ± 1.5.
Turning to TYSSGFAPGWN, the amyloid nucleation score result is “inactive”.
Next, GFGGSSAHDRGYETRKSSLE: “inactive”; VMYGIL: “inactive”.
TWLIY: the amyloid nucleation score result was “inactive”.
Next, YFVFKALRSIPNGLMLSLRG: “inactive”; RSSVYGQLILVPHYFDCLNL: “inactive”.
Regarding IDVYLGLYMRRVSVLETHCS, the amyloid nucleation score stood at 2.02 ± 0.087.
Under IRSKCR stands “inactive”; under YVLCFVVELWIGFSDDWISW, “inactive”.
IVTYLLFDYHNPTRVSYYEC: the amyloid nucleation score entry was “inactive”.
On to YLRWLLFYS, for which the amyloid nucleation score result is “inactive”.
Next, LYTNLTTVDLHCVKNA: “inactive”; NGDGLVLYIRLLRLRRHVDT: “inactive”.
As for ANVWPISPLSGGVRLWMFGR, the amyloid nucleation score entry is “inactive”.
For the substance CSTYSRLRYIAYCWVVRP, the amyloid nucleation score result is “inactive”.
Take SSGGCR: the amyloid nucleation score entry is “inactive”.
The substance FRYEILTI returned an amyloid nucleation score of 0.912 ± 0.12.
Next, YLLSL: “inactive”.
VLKKGYNKRYVGECIANCTV: the amyloid nucleation score result is “inactive”.
LYFNRRWWPMRWVRDSPRPS displayed an amyloid nucleation score of 0.024 ± 0.96.
Substance DVALCKYFGLNTIVNSFLAM showed an amyloid nucleation score of 1.42 ± 0.081.
For EFSYISVCRLQLLMHTKIWD, the amyloid nucleation score amounted to 1.43 ± 0.14.
Under SAVSTRW stands “inactive”; under YNSYK, “inactive”; under CYGFSK, “inactive”.
Turning to YSSVTTIVVPSLNAYILNCR, the amyloid nucleation score result was “inactive”.
For YHLFLDVVFFHSTKDESRKN, the amyloid nucleation score came out at 0.187 ± 0.6.
Regarding AERAWYGGCLNRILLSVCCH, the amyloid nucleation score result was “inactive”.
As for ICEVNCGLVIWWVRRFEGAS, the amyloid nucleation score result is “inactive”.
GDTHHCAADGV: the amyloid nucleation score amounted to 0.504 ± 0.24.
NVVFV: the amyloid nucleation score result was “inactive”.
In the case of YVILGIRGKGWVFYQRAP, the amyloid nucleation score result is “inactive”.
Next, TSKRSYVSTGYTNWFTFRI: “inactive”.
In the case of QILGTQAGYYCSREGFANL, the amyloid nucleation score entry is “inactive”.
Regarding DILIREFDYLTSTHLDDKIR, the amyloid nucleation score result is “inactive”.
Next, RLFLTVHPTDSILENEAV: “inactive”; IHVDLYN: “inactive”; KLLSRYSTACMLRINLIRRY: “inactive”.
On to LGNKGNEMPLRSKVKRWFLL, for which the amyloid nucleation score entry was “inactive”.
For the substance LREHWEELVLGFWFPKVCCF, the amyloid nucleation score result was “inactive”.
On to YLCIKNRLDKDRSW, for which the amyloid nucleation score entry is “inactive”.
Under VTNSFSIFSGIIVHSTSLMV stands 0.032 ± 0.6; under KHVNLWSVGWFLGFLVWSRA, “inactive”; under LHSVGVPMAPVKGTMWERER, “inactive”.
Regarding CCSSRMYLEGCPSLRLMEHI, the amyloid nucleation score result is “inactive”.
Under SSLCTL stands “inactive”; under WFFETQLSLWWVNGQDLAEV, “inactive”; under APGCGTNLGMIFALGWALWR, “inactive”.
Take NGFCSASICREDCEMWNMQS: the amyloid nucleation score result is “inactive”.
Turning to CRRNTVFMNRVYNNGLFEEC, the amyloid nucleation score entry was “inactive”.
For GYKGR, the amyloid nucleation score result is “inactive”.
Consider HTFYFYSMSSGFKRHETTSG, for which the amyloid nucleation score entry was “inactive”.
With QWVSLGLVGVGQ, the amyloid nucleation score entry was “inactive”.
IDRVMCNHDSIRQQLSLLSV: the amyloid nucleation score result is “inactive”.
Next, RLTHLLHCYTI: “inactive”; WTRHGSEFVCYNSGHLWVFD: 0.164 ± 0.31.
Regarding RVIRHPAI, the amyloid nucleation score was -0.461 ± 0.96.
Take SSMSRVCEIKVLYNMSGVYT: the amyloid nucleation score result was “inactive”.
CSILACSA: the amyloid nucleation score entry is “inactive”.
On to SQLAYVGTVKTNFDKISRCG, for which the amyloid nucleation score result was “inactive”.
On to QYFPDIY, for which the amyloid nucleation score entry is “inactive”.
Consider TYGNLFNNCDKIYRRQNRSL, for which the amyloid nucleation score entry was “inactive”.
In the case of TWFLTPLNTFIFLLVPLFGL, the amyloid nucleation score entry is “inactive”.
As for CKDSDSTIPRMLLLRLKTEL, the amyloid nucleation score result is “inactive”.
As for RMILFFVARSSKMGIGTFGF, the amyloid nucleation score was found to be 0.868 ± 0.21.
VICGCWIFFFYFLK: the amyloid nucleation score was -0.354 ± 0.73.
Under SNFFRYIFYTRSQFSFQLIN stands “inactive”; under CATFFAKLQYNYH, 1.28 ± 0.12; under VSVNMFLYISVNYKELGCEY, 1.93 ± 0.056.
As for TGKLNNFFNTFRYFYLLADY, the amyloid nucleation score result was “inactive”.
On to KFANYSPRDGTCGTDAHVSD, for which the amyloid nucleation score result was “inactive”.
As for LKSSPNPFMNNGFIISAILG, the amyloid nucleation score entry was “inactive”.
Regarding KNLGLA, the amyloid nucleation score entry was “inactive”.
For FLMDNMVSGIVFFTSSVIRG, the amyloid nucleation score result is “inactive”.
QWSNCDMASAYYAYRNLNAD: the amyloid nucleation score result was “inactive”.
WSRSSADRVII: the amyloid nucleation score is -0.471 ± 1.5.
Next, MHAMNVMAGVRLALVYVRSN: “inactive”.
On to SSFPGWDIECIC, for which the amyloid nucleation score result is “inactive”.
Regarding FYRAYSDYFWKTMFSYLGTS, the amyloid nucleation score is -0.619 ± 0.93.
Turning to NICLKNSVS, the amyloid nucleation score result was “inactive”.
Under EVQVFSFDTGCMHSHNLYAS stands “inactive”; under DCRAIVLRL, “inactive”.
Next, AWPIIRFYIQRYLWIVRGRG: “inactive”.
Regarding PVVTVHAWHRFNMHL, the amyloid nucleation score result was “inactive”.
YSLCACSYYVNVVNNRVVSV yielded an amyloid nucleation score of 1.39 ± 0.073.
As for DSFAGVRLGVHASNILIHGQ, the amyloid nucleation score result is “inactive”.
VENKMFDRGGFYVWMCGLSD: the amyloid nucleation score result is “inactive”.
The substance MRCGRIDGDFGFAPRLRGTM returned an amyloid nucleation score of 0.902 ± 0.14.
With EFGVVVNEFYGDVY, the amyloid nucleation score result was “inactive”.
Next, SFGYLSAPRFIVGKVSHLGC: “inactive”; TFQDGLLRSDWFIMTLFRRP: “inactive”; VFPKSYTPDQTFPCNSSLAK: “inactive”.
Under IDISIL stands “inactive”.
Take AYKYVTVCLVDSSVLTSNRG: the amyloid nucleation score entry was “inactive”.
Regarding MMELQVAQLHTEGDRLKSRR, the amyloid nucleation score was -0.787 ± 2.4.
FFRIVSLCSSPGNGEDKDRL: the amyloid nucleation score entry was “inactive”.
The substance AFDTILAEYLCYFLL returned an amyloid nucleation score of 1.7 ± 0.1.
Turning to DTTFMQYVAIYVLVSKLFIE, the amyloid nucleation score entry was “inactive”.
Regarding PVQACRCKSH, the amyloid nucleation score result was “inactive”.
Under GSPVRWRGPGFTSPRLTRA stands 0.766 ± 0.26.
Next, SGWTPYLCSSSYELFREQRK: -0.084 ± 0.27; SRLIRKMKCVMGSTSSTIGY: “inactive”; LRMWERMCAVSL: “inactive”.
As for NKHDHLFRKFFLCISLGLAG, the amyloid nucleation score result is “inactive”.
As to REEAVWQADFVYLTKSAILN, the amyloid nucleation score result is “inactive”.
Substance KILFILISFLWMLFLVWNFN registered an amyloid nucleation score of 1.48 ± 0.1.
Turning to DEFVCLEVDNLCMVCSEKM, the amyloid nucleation score was -0.067 ± 0.73.
As to NWSSH, the amyloid nucleation score result is “inactive”.
For RAYFGCFQGFILLFSYLMC, the amyloid nucleation score entry was “inactive”.
As for DYGLHDRTYTSIYRVA, the amyloid nucleation score entry was “inactive”.
Regarding ACTRWS, the amyloid nucleation score entry is “inactive”.
As to SKLRYRCSNSHQVIGTPCLD, the amyloid nucleation score entry was “inactive”.
For IMVAMGW, the amyloid nucleation score result is “inactive”.
As for NLRNDIYMTSICCE, the amyloid nucleation score result is “inactive”.
Turning to WWGNRAVVYIILLHEPGAWR, the amyloid nucleation score entry is “inactive”.
Under FFVHRCIYVNGWKGQTHSSQ stands “inactive”; under FLRNIFDGRTWTFKDSNMSH, “inactive”; under RWKMTCFSSYNG, “inactive”.
On to LSEVRLRRQLLVGACDGGYN, for which the amyloid nucleation score result is “inactive”.
Consider FLYAFLPWRCVKNFFCSKVL, for which the amyloid nucleation score result was “inactive”.
As for VMGVAPSYASTYLLVILNMG, the amyloid nucleation score stood at 1.39 ± 0.15.
As for LFVLGPDRLDCAQCKLLRDR, the amyloid nucleation score result is “inactive”.
GYRLRQTSARYIAVEWSWKC: the amyloid nucleation score result was “inactive”.
Substance CVFYCSKLWIRYNNVMMISS registered an amyloid nucleation score of 0.831 ± 0.1.
Take LRRRSLDHKSGSYLVTG: the amyloid nucleation score result is “inactive”.
Next, TMWLLCELFVTC: “inactive”; FLTLSSFHRPMVE: “inactive”.
Next, YRKLFDFRRVSTLHFTKSN: “inactive”; IVCGISMIS: “inactive”.
Regarding GRMWSACLGYMWGCFWREFW, the amyloid nucleation score result is “inactive”.
For YRILTGLSLSFRVCIYFVW, the amyloid nucleation score result is “inactive”.

For the origin of these results see the supplement of paper PMC12042874.
